The target of one assay is FcγR1 (CD64) (human) (UniProt P12314). As to the kind of experiment: cell binding, FcγR-engineered HEK293 cells.
Assay [1] has as its target FcγR2A (CD32aH131) (human) (UniProt P12318). In words: cell binding, FcγR-engineered HEK293 cells.
The target in assay [2] is FcγR2A (CD32aR131) (human) (UniProt P12318). As to the kind of experiment: cell binding, FcγR-engineered HEK293 cells.
Assay [3] addresses FcγR3A (CD16aV158) (human) (UniProt P08637). As to the kind of experiment: cell binding, FcγR-engineered HEK293 cells.
Assay [4] concerns the target FcγR3A (CD16aF158) (human) (UniProt P08637). In words: cell binding, FcγR-engineered HEK293 cells.
The target in assay [5] is FcγR2B (human) (UniProt P31994). In words: cell binding, FcγR-engineered HEK293 cells.
The target in assay [6] is FcγR3A (CD16aV158) (human) (UniProt P08637). In words: cell binding, FcγR-engineered HEK293 cells. The source holds these as a separate data set.
Assay [7] addresses FcγR2B (human) (UniProt P31994). In words: cell binding, FcγR-engineered HEK293 cells. This is another data set of the same source.
For assay [8], the target named is mouse SIRPα on cells (mouse) (UniProt P97797). As to the kind of experiment: flow cytometry on Mouse SIRPα-CHO-K1 cells.
Assay [9] deals with rat SIRPα on CHO-K1 cells (rat) (UniProt P97710). As to the kind of experiment: flow cytometry on Rat SIRPα-CHO-K1 cells.

Where two headings read alike, the source gives them in different places.

For 4 substances, EC50 and EC50 (read off the curve) results are on record in patent US20200102387A1.

As usually defined, the EC50 is the concentration giving half of the maximal effect. Low readings indicate higher potency in that assay, high ones lower potency in that assay. The term EC50 (read off the curve) denotes the concentration that produces a half-maximal response. A high value points to a less potent agent.

Sequence of FcγR2B (human) (P31994 43-310): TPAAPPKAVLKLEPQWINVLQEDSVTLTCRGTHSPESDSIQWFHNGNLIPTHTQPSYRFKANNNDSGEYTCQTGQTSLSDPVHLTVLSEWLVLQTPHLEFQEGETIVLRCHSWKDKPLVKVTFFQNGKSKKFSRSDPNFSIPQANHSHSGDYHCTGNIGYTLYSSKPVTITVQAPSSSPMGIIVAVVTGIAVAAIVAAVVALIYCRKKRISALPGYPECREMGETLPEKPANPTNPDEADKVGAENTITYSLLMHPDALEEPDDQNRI
Sequence of FcγR2A (CD32aR131) (human) (P12318 34-317 H167R): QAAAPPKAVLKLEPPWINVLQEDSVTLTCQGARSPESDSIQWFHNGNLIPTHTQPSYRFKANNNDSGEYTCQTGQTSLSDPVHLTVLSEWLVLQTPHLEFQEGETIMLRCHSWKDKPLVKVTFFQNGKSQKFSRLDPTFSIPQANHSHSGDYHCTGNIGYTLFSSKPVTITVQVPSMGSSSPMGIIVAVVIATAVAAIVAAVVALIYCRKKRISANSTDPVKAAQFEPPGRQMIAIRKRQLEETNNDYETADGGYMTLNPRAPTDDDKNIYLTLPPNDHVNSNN
Sequence of FcγR3A (CD16aV158) (human) (P08637 17-254 F176V): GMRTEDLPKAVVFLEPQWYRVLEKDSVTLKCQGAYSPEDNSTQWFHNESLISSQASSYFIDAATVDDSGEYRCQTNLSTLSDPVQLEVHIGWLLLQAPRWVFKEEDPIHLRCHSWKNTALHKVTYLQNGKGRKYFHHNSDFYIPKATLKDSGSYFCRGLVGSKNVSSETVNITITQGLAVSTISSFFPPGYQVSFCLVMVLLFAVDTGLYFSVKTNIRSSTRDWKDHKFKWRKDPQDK
Sequence of FcγR1 (CD64) (human) (P12314 16-374): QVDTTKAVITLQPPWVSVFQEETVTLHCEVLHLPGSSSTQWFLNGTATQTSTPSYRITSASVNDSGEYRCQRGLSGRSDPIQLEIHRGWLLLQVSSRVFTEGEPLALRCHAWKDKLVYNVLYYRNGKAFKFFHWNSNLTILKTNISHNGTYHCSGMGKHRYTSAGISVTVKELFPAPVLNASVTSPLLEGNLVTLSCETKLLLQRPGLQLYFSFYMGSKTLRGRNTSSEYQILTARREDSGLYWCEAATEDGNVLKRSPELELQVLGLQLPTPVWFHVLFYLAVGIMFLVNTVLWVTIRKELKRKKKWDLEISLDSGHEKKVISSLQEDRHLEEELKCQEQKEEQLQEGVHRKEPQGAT
Sequence of FcγR2A (CD32aH131) (human) (P12318 34-317): as the sequence (P12318 34-317 H167R) above, with R134H counted along it
Sequence of mouse SIRPα on cells (mouse) (P97797 32-513): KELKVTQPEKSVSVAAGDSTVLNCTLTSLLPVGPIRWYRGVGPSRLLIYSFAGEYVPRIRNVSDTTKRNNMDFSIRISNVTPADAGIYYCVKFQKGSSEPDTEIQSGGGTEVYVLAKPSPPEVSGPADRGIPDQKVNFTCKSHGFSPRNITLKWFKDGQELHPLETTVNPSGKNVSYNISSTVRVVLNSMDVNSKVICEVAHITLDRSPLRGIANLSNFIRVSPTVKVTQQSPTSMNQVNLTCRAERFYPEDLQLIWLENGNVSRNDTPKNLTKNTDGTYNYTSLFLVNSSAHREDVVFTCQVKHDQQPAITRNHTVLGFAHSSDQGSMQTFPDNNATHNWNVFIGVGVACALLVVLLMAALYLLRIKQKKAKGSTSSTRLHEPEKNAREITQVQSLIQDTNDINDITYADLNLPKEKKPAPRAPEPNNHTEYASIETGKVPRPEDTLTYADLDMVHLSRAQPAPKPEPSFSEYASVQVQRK
Sequence of rat SIRPα on CHO-K1 cells (rat) (P97710 32-509): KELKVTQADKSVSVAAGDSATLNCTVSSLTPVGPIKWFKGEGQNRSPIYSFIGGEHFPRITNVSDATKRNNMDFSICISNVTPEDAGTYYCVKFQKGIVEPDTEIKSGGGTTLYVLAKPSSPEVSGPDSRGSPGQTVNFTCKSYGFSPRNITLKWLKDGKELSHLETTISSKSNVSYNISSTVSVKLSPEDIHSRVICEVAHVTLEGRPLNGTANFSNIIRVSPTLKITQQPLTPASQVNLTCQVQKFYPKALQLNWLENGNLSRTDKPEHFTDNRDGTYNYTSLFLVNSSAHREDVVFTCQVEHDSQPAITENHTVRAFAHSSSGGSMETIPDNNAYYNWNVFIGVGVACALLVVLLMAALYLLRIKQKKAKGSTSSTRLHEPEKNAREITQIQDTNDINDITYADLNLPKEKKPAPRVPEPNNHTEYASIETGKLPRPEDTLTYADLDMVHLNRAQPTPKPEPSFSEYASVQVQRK
Sequence of FcγR3A (CD16aF158) (human) (P08637 17-254): as the sequence (P08637 17-254 F176V) above, with V160F counted along it

As for Commercially Available IgG1 (antibody), the EC50 with FcγR1 (CD64) (human) worked out at 0.00083 µM; in assay [1], 0.361 µM; in assay [2] it was 0.188 µM.
Take Isotype Control-IgG1 (antibody): the concentration for a half-maximal effect (EC50) with FcγR1 (CD64) (human) worked out at 0.00118 µM; in assay [3], 0.449 µM; in assay [4], 0.311 µM; in assay [1] it was 0.137 µM; in [2] it was 0.0902 µM; with FcγR2B (human) [5] it was 1.2 µM. The values for the EC50 (in assay [6]; in the assay with FcγR2B (human) [7]) were 0.127 µM and 2.25 µM, respectively.
For the substance anti-mouse-SIRPα antibody P84, the EC50 (read off the curve) in [8] came to 0.002 µM.
In the case of anti-rat-SIRPα antibody OX-41, in assay [9], the half-maximal effective concentration (EC50 (read off the curve)) stood at 0.002 µM. That is a single-digit nanomolar value.
